The assay has as its target human glandular kallikrein 2 (hK2), enzymatically active (human), P20151. The assay can be described thus: cell-based or functional assay.

Square brackets hold non-standard residues; d marks the D form. Ends that are not written are not given here. Tyr(3-NO2) = N[C@@H](Cc1ccc(O)c([N+](=O)[O-])c1)C(=O)O; Abz = aminobenzoic acid; Dap = NC[C@H](N)C(=O)O

Turning to [Tyr(3-NO2)]GKAFRL[Dap]FK(Abz)-{PEGA resin} [Y′GKAFRL-Dap-F-K′-PEGA (SEQ ID NO:53)], the time required to generate clearly detectable fluorescence on the beads was 4 to 5 h.

For the origin of these results see patent US7906477.
